# Measured values: article PMC5787837
# Columns and labels:
# [1] = target: commercial Protein A (Sigma-Aldrich) (Staphylococcus aureus) (UniProt P38507); assay: QCM-D (quartz crystal microbalance with dissipation monitoring)
# [2] = target: HFBI–Protein A fusion protein (Trichoderma reesei | Staphylococcus aureus); assay: QCM-D (quartz crystal microbalanc); conditions: scale: moles of rituximab per mole of immobilized HFBI–Protein A
# [3] = target: HFBII–Protein A fusion protein (Trichoderma reesei | Staphylococcus aureus); assay: QCM-D (quartz crystal microbalanc); conditions: scale: moles of rituximab per mole of immobilized HFBII–Protein A
substance,measurement,setting,value
rituximab (antibody),stoichiometry N,[1],1.2
same,stoichiometry N,[2],1.5
same,stoichiometry N,[3],1.2
